According to article PMC11039992:

B1: MAC-RBM41-WT [human] / DEAH-box RNA helicase DHX8 [human (endogenous in Flp-In T-REx 293)] (parent)
chain 1: MKRVNSCVKSDEHVLEELETEGERQLKSLLQHQLDTSVSIEECMSKKESFAPGTMYKPFGKEAAGTMTLSQFQTLHEKDQETASLRELGLNETEILIWKSHVSGEKKTKLRATPEAIQNRLQDIEERISERQRILCLPQRFAKSKQLTRREMEIEKSLFQGADRHSFLKALYYQDEPQKKNKGDPMNNLESFYQEMIMKKRLEEFQLMRGEPFASHSLVSATSVGDSGTAESPSLLQDKGKQAAQGKGPSLHVANVIDFSPEQCWTGPKKLTQPIEFVPEDEIQRNRLSEEEIRKIPMFSSYNPGEPNKVLYLKNLSPRVTERDLVSLFARFQEKKGPPIQFRMMTGRMRGQAFITFPNKEIAWQALHLVNGYKLHGKILVIEFGKNKKQRSNLQATSLISCATGSTTEISGS
chain 2: MAVAVAMAGALIGSEPGPAEELAKLEYLSLVSKVCTELDNHLGINDKDLAEFVISLAEKNTTFDTFKASLVKNGAEFTDSLISNLLRLIQTMRPPAKPSTSKDPVVKPKTEKEKLKELFPVLCQPDNPSVRTMLDEDDVKVAVDVLKELEALMPSAAGQEKQRDAEHRDRTKKKKRSRSRDRNRDRDRDRERNRDRDHKRRHRSRSRSRSRTRERNKVKSRYRSRSRSQSPPKDRKDRDKYGERNLDRWRDKHVDRPPPEEPTIGDIYNGKVTSIMQFGCFVQLEGLRKRWEGLVHISELRREGRVANVADVVSKGQRVKVKVLSFTGTKTSLSMKDVDQETGEDLNPNRRRNLVGETNEETSMRNPDRPTHLSLVSAPEVEDDSLERKRLTRISDPEKWEIKQMIAANVLSKEEFPDFDEETGILPKVDDEEDEDLEIELVEEEPPFLRGHTKQSMDMSPIKIVKNPDGSLSQAAMMQSALAKERRELKQAQREAEMDSIPMGLNKHWVDPLPDAEGRQIAANMRGIGMMPNDIPEWKKHAFGGNKASYGKKTQMSILEQRESLPIYKLKEQLVQAVHDNQILIVIGETGSGKTTQITQYLAEAGYTSRGKIGCTQPRRVAAMSVAKRVSEEFGCCLGQEVGYTIRFEDCTSPETVIKYMTDGMLLRECLIDPDLTQYAIIMLDEAHERTIHTDVLFGLLKKTVQKRQDMKLIVTSATLDAVKFSQYFYEAPIFTIPGRTYPVEILYTKEPETDYLDASLITVMQIHLTEPPGDILVFLTGQEEIDTACEILYERMKSLGPDVPELIILPVYSALPSEMQTRIFDPAPPGSRKVVIATNIAETSLTIDGIYYVVDPGFVKQKVYNSKTGIDQLVVTPISQAQAKQRAGRAGRTGPGKCYRLYTERAYRDEMLTTNVPEIQRTNLASTVLSLKAMGINDLLSFDFMDAPPMETLITAMEQLYTLGALDDEGLLTRLGRRMAEFPLEPMLCKMLIMSVHLGCSEEMLTIVSMLSVQNVFYRPKDKQALADQKKAKFHQTEGDHLTLLAVYNSWKNNKFSNPWCYENFIQARSLRRAQDIRKQMLGIMDRHKLDVVSCGKSTVRVQKAICSGFFRNAAKKDPQEGYRTLIDQQVVYIHPSSALFNRQPEWVVYHELVLTTKEYMREVTTIDPRWLVEFAPAFFKVSDPTKLSKQKKQQRLEPLYNRYEEPNAWRISRAFRRR

Variants of: B1
Assay: BioID proximity labeling (mass spectrometry spectral counts)
Conditions: with DEAH-box RNA helicase DHX8 [human (endogenous in Flp-In T-REx 293)]; MAC-tagged protein expression induced with tetracycline in the presence of biotin for 24 h; three independent replicates; parent: 23; read off a plot

Question: Which response (spectral count) does the source give for chain 1 MKRVNSCVKSDEHVLEELETEGERQLKSLLQHQLDTSVSIEECMSKKESFAPGTMYKPFGKEAAGTMTLSQFQTLHEKDQETASLRELGLNETEILIWKSHVSGEKKTKLRATPEAIQNRLQDIEERISERQRILCLPQRFAKSKQLTRREMEIEKSLFQGADRHSFLKALYYQDEPQKKNKGDPMNNLESFYQEMIMKKRLEEFQLMRGEPFASHSLVSATSVGDSGTAESPSLLQDKGKQAAQGKGPSLHVANVIDFSPEQCWTGPKKLTQPIEFVPEDEIQRNRLSEEEIRKIPMFSSYNPGEPNKVLALKNLSPRVTERDLVSLFARFQEKKGPPIQFRMMTGRMRGQAFITFPNKEIAWQALHLVNGYKLHGKILVIEFGKNKKQRSNLQATSLISCATGSTTEISGS [chain 1 Y312A] here?
Answer: 19

Question: How did the response (spectral count) turn out when chain 1 MKRVNSCVKSDEHVLEELETEGERQLKSLLQHQLDTSVSIEECMSKKESFAPGTMYKPFGKEAAGTMTLSQFQTLHEKDQETASLRELGLNETEILIWKSHVSGEKKTKLRATPEAIQNRLQDIEERISERQRILCLPQRFAKSKQLTRREMEIEKSLFQGADRHSFLKALYYQDEPQKKNKGDPMNNLESFYQEMIMKKRLEEFQLMRGEPFASHSLVSATSVGDSGTAESPSLLQDKGKQAAQGKGPSLHVANVIDFSPEQCWTGPKKLTQPIEFVPEDEIQRNRLSEEEIRKIPMFSSYNPGEPNKVLYLKNLSPRVTERDLVSLFARFQEKKGPPIQFRMMTGRMRGAAFITFPNKEIAWQALHLVNGYKLHGKILVIEFGKNKKQRSNLQATSLISCATGSTTEISGS [chain 1 Q352A] was run?
Answer: 23

Question: For chain 1 MKRVNSCVKSDEHVLEELETEGERQLKSLLQHQLDTSVSIEECMSKKESFAPGTMYKPFGKEAAGTMTLSQFQTLHEKDQETASLRELGLNETEILIWKSHVSGEKKTKLRATPEAIQNRLQDIEERISERQRILCLPQRFAKSKQLTRREMEIEKSLFQGADRHSFLKALYYQDEPQKKNKGDPMNNLESFYQEMIMKKRLEEFQLMRGEPFASHSLVSATSVGDSGTAESPSLLQDKGKQAAQGKGPSLHVANVIDFSPEQCWTGPKKLTQPIEFVPEDEIQRNRLSEEEIRKIPMFSSYNPGEPNKVLYLKNLSPRVTERDLVSLFARFQEKKGPPIQFRMMTGRMRGQAAITFPNKEIAWQALHLVNGYKLHGKILVIEFGKNKKQRSNLQATSLISCATGSTTEISGS [chain 1 F354A], which response (spectral count) is on record?
Answer: 19

Question: For chain 1 MKRVNSCVKSDEHVLEELETEGERQLKSLLQHQLDTSVSIEECMSKKESFAPGTMYKPFGKEAAGTMTLSQFQTLHEKDQETASLRELGLNETEILIWKSHVSGEKKTKLRATPEAIQNRLQDIEERISERQRILCLPQRFAKSKQLTRREMEIEKSLFQGADRHSFLKALYYQDEPQKKNKGDPMNNLESFYQEMIMKKRLEEFQLMRGEPFASHSLVSATSVGDSGTAESPSLLQDKGKQAAQGKGPSLHVANVIDFSPEQCWTGPKKLTQPIEFVPEDEIQRNRLSEEEIRKIPMFSSYNPGEPNKVLALKNLSPRVTERDLVSLFARFQEKKGPPIQFRMMTGRMRGQAAITFPNKEIAWQALHLVNGYKLHGKILVIEFGKNKKQRSNLQATSLISCATGSTTEISGS [chain 1 Y312A F354A], which response (spectral count) is on record?
Answer: 23
